From the nanobody polyreactivity screen of Harvey et al. (2022)

Assay: yeast display, Sf9 membrane polyspecificity reagent, FACS + sequencing; frameworks hold sequencing errors
Summary of the method: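 Nanobodies came from a synthetic yeast display library in Saccharomyces cerevisiae BJ5465, induced with galactose for 36–48 hours and stained for 1 hour at 4 °C with 10% biotinylated, detergent-solubilized Sf9 membrane reagent. Cells were enriched on streptavidin microbeads and then FACS-sorted, with low and high (top ~1%) gates set on anti-HA fluorescence for expression and streptavidin fluorescence for reagent binding. Each polyreactivity label reflects the gate a clone came from. Genes were amplified by colony PCR, sequenced by MiSeq 2 × 250 and filtered by CDR length.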

Row | Sequence | polyreactivity (PSR sort gate)
1 | QVQLVESGGGLVQAGCSLRLSCAASGRTFCYNSMGLYRQAPGKERELVAAISTSGGSTYYADSVKGRFTISRDNAKNTVYLQMNSLKPEDSAVYSCAADSHRSFSLYAYDSWGLGTQVTVSS | low polyreactivity
2 | QVQLVESGGGLVQAGCSLRLSCAASGRTFGSYAMGWYRQAPGKERDLVAGITWRDGSTYYADSVKGRFTISRDNAKNTVYFQMNSLKPEDTAVYYCDKEAVRYYLFGMEYWGQGNQVTVSS | low polyreactivity
3 | QVQLVESGGGLVQAGCSLRLSCAASGRTFSSYAMGWYRQSPGKERELVAAINRGGGSTYYADSVKGRFTISRDNAKNTVYLQMNSLKPEDTAVYYCNARSKRTYEYDYWGQGTQVTVSS | high polyreactivity
4 | QVQLVESGGGLVQAGCSLRLSCAASGRTFYPYAMGWYRQAPRKERELVAAINWSGTSTYYADSVKGRFTISRDNAKNTVYLQMNSLKTEDTAVYYCAAKQYPVLHYSLTEADMDYWGQGTQVTVSS | low polyreactivity
5 | QVQLVESGGGLVQAGCSLRLSCAASGRTFYTVYARGWYRQAPGKERELVAAITKDGTTTYYADSVKGRFTISRDNAKNTVYIEMNSLKQEDTAVYYCNADVSQPWGGGEYNYWGQGTQVTVSS | high polyreactivity
6 | QVQLVESGGGLVQAGCSLRLSCAASGSIFALYDMGWYRQAPGKERELVAAISYRGGRTYYADSVKGRFTISRDNAKNTVYLQMNSLKPEDTAVYYCATDFPGNFDYWGQGTQVTVSS | low polyreactivity
7 | QVQLVESGGGLVQAGCSLRLSCAASGSIFGWYAMGWYRQAPGTERELVAAITLIGGSTYYADSVKGRFTISRDNAKNTVYLQMNSLKPEDTAVYYCNAVWYWGDMDYWGQGTQVTVSS | low polyreactivity
8 | QVQLVESGGGLVQAGCSLRLSCAASGSIFKQNTMGWYRQAPGKERELVAAISSGGSTYYADSVKGRFTISRDNAKNTVYLQMNSLKPEDTAVYYCAAVTVIGGEYDYWGQGTQVTVSS | low polyreactivity
9 | QVQLVESGGGLVQAGCSLRLSCAASGSIFKRYTMGWYRQAPGKERELVAAISSRGGSTYYADSVKGRFTISRDNAKNTVYLQMNILKPEDTAVYYCNTKLHDGYGGWRYDYWGQGTQVTVSS | high polyreactivity
10 | QVQLVESGGGLVQAGCSLRLSCAASGSIFTNYGMGWYRQAPGKERELVADIRARSGSTYYADSVKGRFTISRDNAKNTVYLQMNSLKPEDTAVYYCAARRTSYRFDYSAGYRYGYWGQGTQVTVSS | high polyreactivity
11 | QVQLVESGGGLVQAGCSLRLSCAASGSIFVNKAMGWYRQAPGKERELVAAISSRSSRTFYADSVKGRFTISRDNSKNTVYLQMNSLKPEDTAVYYCAARRRLAWGQGTQVTVSS | high polyreactivity
12 | QVQLVESGGGLVQAGCSLRLSCAASGSIFYGYAMGWYRQAPGKERELVAAISYSGDRTYYADSVKGRFTISRDNAKNSVYLQMNSLKPEDTAVYYCAAQRRYGDDYWGQGTQVTVSS | high polyreactivity
13 | QVQLVESGGGLVQAGCSLRLSCAASGSIVDPYAMGWYRQAPRKEREWVAAISGSGGSTYYADSVKGRFTISRDNAKNTVYLQMNSLKPVDTSVYYCAAADAWWGRRYKYYHWGQGTQVTVSS | low polyreactivity
14 | QVQLVESGGGLVQAGCSLRLSCAASGSIYPYAMGWYRQAPGKERELVDAISFSDDRTYYADSVKGRFTISRDIAKNNVYVQMNSLKPEDTAFYYCDAYYFSADEYEYVYWGQGTQVTLSS | high polyreactivity
15 | QVQLVESGGGLVQAGCSLRLSCAASGSTFGENAMGWYRQAPGKERELVAVITSDTSTYYADSVKGRFTISRDNAKNTVYLQMNSLKPEDTAVYYCAADWGGLWFWYEYWGQGTQVTVSS | low polyreactivity
16 | QVQLVESGGGLVQAGCSLRLSCAASGSTFRPYAMGWYRQAPGKERELVAAINNSGGSTYYADSVKGRFTISRDNAKNTVYLQMNSLKPEDTAVYYCAAEWYYYFIIMNYWGQGTQVTVSS | high polyreactivity

Row | Sequence | polyreactivity (PSR sort gate)
17 | QVQLVESGGGLVQAGCSLRLSCAASGSTFYAYTKGGYRQAPGKERELVAAISWSDGTTYADSVKGRFTISRDNAKNTVYLQMNSLKPEDTAVYYCATDDVGPGLGYNYWGEGTQVTVSS | low polyreactivity
18 | QVQLVESGGGLVQAGCSLRLSCAASGSTFYYNAMGWYRQAPGKERELVAAITFTGGSTYADSVKGRFTISRDNAKNTVYLQLNSLKPEDTAVYYCAATIEGHDYLGTGYDYWGHGTQVTVSS | low polyreactivity
19 | QVQLVESGGGLVQAGCSLRLSCAASGSTLNSYFMGWYRQAPGKERELVATIRSGSSTNYADSVKGRFTISRDNAKNTVYLQMNILKPEDTAVYYCAADAYSLCYDSWGQGTQVTVSS | low polyreactivity
20 | QVQLVESGGGLVQAGCSLRLSCSASGSIFYSYAMGWYRQAPGKERELVAAITSVVSTNYADSVKGRFTISRDYAKNTVYLQMNRLKTEDTAVYYCAAGYLRLYYVCLDDSYGYDYWGQGTQVTVSS | low polyreactivity
21 | QVQLVESGGGLVQAGCSLRLSCSASGSTFVAYAMGWYRQAPGTERELVAANTTGGSTNYADSVKGRFTISRDNAKNTVYLQMNSLKPEDTAVYYCATDSSTTWLRRATSKGPGEYWGQGTQVTVSS | low polyreactivity
22 | QVQLVESGGGLVQAGCSLRLSSAASGFIYYRYAMGWYRQAHGKERELVAAISRSGGSTYYADSVKGRFTISRDNAKNTVYVQMNRLKPEDTAVYYCAADSGSLAPGNDYWGQGTQVTVSS | high polyreactivity
23 | QVQLVESGGGLVQAGCSLRLTCAASGFIYLSYGMGWNRQAPGKERELVASITSDGGSTYYADSVKGRFTISRDNAKYTVYLQMNSLKPEDTAVYYCAADSVSPWYYGWYYRYRGYGYCGQGTQVTVSS | low polyreactivity
24 | QVQLVESGGGLVQAGCSVRLSCAATGSSFVDNAMGWYRQAPGKERELVAANDGSADSTYYADSVKGRFTISRDNAKNTVYLQLNSLKPEATAVYYCAAVDYWTKFDYWGQGTQVTVSS | low polyreactivity
25 | QVQLVESGGGLVQAGDSLRLSCAASGLTFTYYAMGWYRQAPGKERELVAAITGSGDRTYYADSVKGRFTISRDNAKNTVYLQMNSLKPEDTAVYYCARDRPGRATGFDYWGPGTQVTVSS | high polyreactivity
26 | QVQLVESGGGLVQAGGCLRLSCAASGRTLGAYAMGWYRQAPGKEREFVASITYGGRTCYADSVKGRFTISRDNAMNTVFLQMNSLKPEDSAVYYCASKLPYRWYDYWGQGTQVTVSS | high polyreactivity
27 | QVQLVESGGGLVQAGGCLRLSCAASGSIFAPIAMGWYRQAPGKERDLVAAITSGVGSTDYADSVKGRFTISRDNAKNNVYLQMNSLKPEDTAVYYCAADSSYLTYWEYDYWGQGTQVTVSS | low polyreactivity
28 | QVQLVESGGGLVQAGGCLRLSCAASGSIFWGYAMGWYRPAPGKERELVAAITDSGGRTYYADSVKGRFTISRDNAKNTVYVQMNSQKPEDTAVYYCAADYYSQYYYYAVPDRDYWGQGTQVTVSS | low polyreactivity
29 | QVQLVESGGGLVQAGGCLRLSCAPSGFIFGGYAMGWDRPAPGKEREVVAAISSSGGSTYYADSVKGRFTISRDNAKNTVYLQMNSLKPEDTAVYYCAARIQSVSSGRWFDYWGQGTQVTVSS | high polyreactivity
30 | QVQLVESGGGLVQAGGGHRLSCAASGRTFTYNAMGWYRQAPGKERELVAAITSGGSTNYADSVKGRYTISRDNAKNTVYLQMNSLKPEDTAVYYCAADGDDYTTTEFDYWGQGTQVTVSS | low polyreactivity
31 | QVQLVESGGGLVQAGGGLRLSCAASGRIFSRNVMGWYRQAPGKERELVAAISASGGSTYYADSVKGRFTISRDNAKNTVYLQMNSLKPEDTAVYYCAARRYPGRTATYYSWGQGTQVTVSS | high polyreactivity
32 | QVQLVESGGGLVQAGGGLRLSCAASGRTFTYNAMGWYRQAPGKERELVAAITYDGGGTYADSVKGRFTISRDNAKNTVYLQMNSMKPEDSAVYYCNKGPDPGSFYDYWGQGTQVTVSS | low polyreactivity
